Measured values from patent EP4248993A1 (Charité - Universitätsmedizin Berlin, dated 2023).

What was measured:
[1] = biological target: MERS-CoV RBD Twin-Strep His (wild type, G372-L588) (MERS-CoV); experiment: BLI, RBD Twin-Strep His on anti-Penta-His biosensor, global 1:1 fit
[2] = biological target: MERS-CoV RBD Twin-Strep His (wild type, G372-L588) (MERS-CoV); experiment: as above; remark: listed apart in the source
[3] = biological target: MERS-CoV RBD Twin-Strep His (wild type, G372-L588) (MERS-CoV); experiment: ELISA (Figure 6A)

B1: recombinant rabbit DPP4 with C-terminal 6xHis-tag (rbDPP4-His) (receptor)
chain: NKGNHEYLHRQEDNILLFNAEYGNSSLFLANITFDEFGHSITDYSVSPDRLFLLLEYNYVKQWRHSYTASYDIYDLNKRQLITEERIPNNTQWITWAPEGHRLAYVWNNDIYVKLEPNLPSQRITWTGKADVIYNGITDWVYEEEVFSAYSALWWSPNGTFLAYAQFNDTGVPLIEYSFYSDEALQYPKTVRIPYPKAGAVNPTVRFFVVNTDSLSSITNATSVQITAPASMLIGDHYLCDVTWVTHERISLQWLRRIQNYSVMDICDYDRSSGRWNCLVARQHIEMSTTGWVGRFRPAEPHFTSDGNSFYKIMSNEEGYKHICYSLIDNQSCTFITRGAWEVIGIEALTSDYLYYISNEYKGMPGGRNLYKIQLTDHTKVTCLSCELKPERCQYYSVSFGKGAKYYQLRCSGPGLPLYTLHSSVNDQELRVLEDNSALDEMLQDVQMPSKTLDFIILNETKFWYQMVLPPHFDKSKKYPLLLEVYAGPCSQRADAIFRLNWATYLASTENIIVASFDGRGSGYQGDKIMHAINRRLGTLEVEDQIEAARQFSKMGFVDNERIAIWGWSYGGYVTSMVLGSGSGVFKCGIAVAPVSRWEYYDSIYTERYMGLPTPEDNLDHYRNSTVMSRAENFKQVEYLLIHGTADDNVHFQQSAQISKALVDAGVDFQAMWYTDEDHGIDSSTAHQHIYTHMSHFIKQCFSLHHHHHH
**Q.** With B1 as the binder, how does the Kd [1] read?
**A.** 34.3 nM

B2: recombinant human DPP4 with N-terminal 8xHis-tag (hDPP4-N'His) (receptor)
chain: HHHHHHHHGGGSGGGSGGGSDSRKTYTLTDYLKNTYRLKLYSLRWISDHEYLYKQENNILVFNAEYGNSSVFLENSTFDEFGHSINDYSISPDGQFILLEYNYVKQWRHSYTASYDIYDLNKRQLITEERIPNNTQWVTWSPVGHKLAYVWNNDIYVKIEPNLPSYRITWTGKEDIIYNGITDWVYEEEVFSAYSALWWSPNGTFLAYAQFNDTEVPLIEYSFYSDESLQYPKTVRVPYPKAGAVNPTVKFFVVNTDSLSSVTNATSIQITAPASMLIGDHYLCDVTWATQERISLQWLRRIQNYSVMDICDYDESSGRWNCLVARQHIEMSTTGWVGRFRPSEPHFTLDGNSFYKIISNEEGYRHICYFQIDKKDCTFITKGTWEVIGIEALTSDYLYYISNEYKGMPGGRNLYKIQLSDYTKVTCLSCELNPERCQYYSVSFSKEAKYYQLRCSGPGLPLYTLHSSVNDKGLRVLEDNSALDKMLQNVQMPSKKLDFIILNETKFWYQMILPPHFDKSKKYPLLLDVYAGPCSQKADTVFRLNWATYLASTENIIVASFDGRGSGYQGDKIMHAINRRLGTFEVEDQIEAARQFSKMGFVDNKRIAIWGWSYGGYVTSMVLGSGSGVFKCGIAVAPVSRWEYYDSVYTERYMGLPTPEDNLDHYRNSTVMSRAENFKQVEYLLIHGTADDNVHFQQSAQISKALVDVGVDFQAMWYTDEDHGIASSTAHQHIYTHMSHFIKQCFSLP
notes: range 38-766
**Q.** Which Kd [2] does the source give for B2 here?
**A.** 7.8 nM

B3: recombinant mouse DPP4 (mDPP4) (receptor)
chain: SKDEAAADSRRTYSLADYLKSTFRVKSYSLWWVSDFEYLYKQENNILLLNAEHGNSSIFLENSTFESFGYHSVSPDRLFVLLEYNYVKQWRHSYTASYNIYDVNKRQLITEEKIPNNTQWITWSPEGHKLAYVWKNDIYVKVEPHLPSHRITSTGEENVIYNGITDWVYEEEVFGAYSALWWSPNNTFLAYAQFNDTGVPLIEYSFYSDESLQYPKTVWIPYPKAGAVNPTVKFFIVNIDSLSSSSSAAPIQIPAPASVARGDHYLCDVVWATEERISLQWLRRIQNYSVMAICDYDKINLTWNCPSEQQHVEMSTTGWVGRFRPAEPHFTSDGSSFYKIISDKDGYKHICHFPKDKKDCTFITKGAWEVISIEALTSDYLYYISNQYKEMPGGRNLYKIQLTDHTNVKCLSCDLNPERCQYYAVSFSKEAKYYQLGCWGPGLPLYTLHRSTDHKELRVLEDNSALDRMLQDVQMPSKKLDFIVLNETRFWYQMILPPHFDKSKKYPLLLDVYAGPCSQKADASFRLNWATYLASTENIIVASFDGRGSGYQGDKIMHAINRRLGTLEVEDQIEAARQFVKMGFVDSKRVAIWGWSYGGYVTSMVLGSGSGVFKCGIAVAPVSRWEYYDSVYTERYMGLPIPEDNLDHYRNSTVMSRAEHFKQVEYLLIHGTADDNVHFQQSAQISKALVDAGVDFQAMWYTDEDHGIASSTAHQHIYSHMSHFLQQCFSLH
**Q.** Does B3 bind [3]?
**A.** no binding
